Laboratory results published in publication PMC9586334 (Proceedings of the National Academy of Sciences of the …, 2022).
Positions of bridges follow the written chain, without caps; N, C: chain ends. lipid anchor = not defined here

Target: T1, FhuA, outer membrane TonB-dependent transporter of E. coli (mature part, His10-TEV construct) (E. coli, UniProt P06971 34-747)
T1 construct: FhuA of E. coli, the mature part, amplified from E. coli genomic DNA; No TEV cleavage is told for the SEC and cryo-EM samples; also called wild-type FhuA; free FhuA; source: E. coli Bl21 (DE3) Δcyo, alone or co-overexpressed with Llp, purified (IMAC, SEC, in detergent)
T1 sequence (looked up): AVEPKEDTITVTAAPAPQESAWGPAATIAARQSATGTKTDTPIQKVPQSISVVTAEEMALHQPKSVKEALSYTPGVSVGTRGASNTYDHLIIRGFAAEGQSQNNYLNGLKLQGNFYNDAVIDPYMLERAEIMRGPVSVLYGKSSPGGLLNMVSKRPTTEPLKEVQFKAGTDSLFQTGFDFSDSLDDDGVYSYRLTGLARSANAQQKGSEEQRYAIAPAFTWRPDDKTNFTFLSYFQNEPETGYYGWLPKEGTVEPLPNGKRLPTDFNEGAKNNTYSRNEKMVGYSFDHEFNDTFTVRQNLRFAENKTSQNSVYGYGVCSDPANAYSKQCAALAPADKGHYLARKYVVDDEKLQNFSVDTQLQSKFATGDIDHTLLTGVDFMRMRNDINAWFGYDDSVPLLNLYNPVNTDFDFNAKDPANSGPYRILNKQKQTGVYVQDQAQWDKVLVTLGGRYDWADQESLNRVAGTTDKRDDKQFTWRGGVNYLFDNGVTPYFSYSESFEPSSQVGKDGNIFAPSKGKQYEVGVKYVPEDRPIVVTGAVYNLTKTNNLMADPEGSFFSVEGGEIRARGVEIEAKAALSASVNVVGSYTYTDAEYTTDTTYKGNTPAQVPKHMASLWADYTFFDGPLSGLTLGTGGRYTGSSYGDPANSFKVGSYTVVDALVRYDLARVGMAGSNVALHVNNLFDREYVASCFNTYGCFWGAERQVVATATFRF
Assay: SEC; complex assembled in vivo by co-overexpression in E. coli, purified by IMAC and then gel filtration (Superdex-200, 10 mM Hepes, 100 mM NaCl, 0.05% LDAO, pH 7.5); fractions on SDS-PAGE
Settings: partners not purified

B1: Llp, superinfection exclusion lipoprotein of bacteriophage T5 (natural protein, UniProt Q38162 16-77, looked up)
chain: C(lipid anchor)STFGPKDIKCEAYYMQDHVKYKANVFDRKGDMFLVSPIMAYGSFWAPVSYFTEGNTCEGVF
modifications: disulfide 11-58; reading uncertain
notes: Llp of bacteriophage T5, codon-optimized synthetic gene in the arabinose-inducible vector pB22; Lipoprotein; also called lytic conversion protein; SE lipoprotein; source: E. coli Bl21 (DE3) Δcyo, alone or co-overexpressed with FhuA, purified from membranes (IMAC, SEC, in detergent)
B1: binds.
